Data as given in patent publication US20220306758A1 (Regeneron, published 2022).

T1: human BCMA on cells (endogenous, on multiple myeloma and lymphoma cell lines) (human, UniProt Q02223 1-184)
T1 sequence: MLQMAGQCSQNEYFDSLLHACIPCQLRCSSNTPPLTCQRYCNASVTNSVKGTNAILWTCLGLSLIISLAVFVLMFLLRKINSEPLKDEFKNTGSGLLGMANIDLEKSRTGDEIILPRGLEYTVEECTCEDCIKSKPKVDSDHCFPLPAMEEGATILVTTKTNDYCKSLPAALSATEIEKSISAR

T2: mouse BCMA-MFC (BCMA with C-terminal mFc tag) (mouse)
T2 construct: Tested at 30 nM only
T2 chain: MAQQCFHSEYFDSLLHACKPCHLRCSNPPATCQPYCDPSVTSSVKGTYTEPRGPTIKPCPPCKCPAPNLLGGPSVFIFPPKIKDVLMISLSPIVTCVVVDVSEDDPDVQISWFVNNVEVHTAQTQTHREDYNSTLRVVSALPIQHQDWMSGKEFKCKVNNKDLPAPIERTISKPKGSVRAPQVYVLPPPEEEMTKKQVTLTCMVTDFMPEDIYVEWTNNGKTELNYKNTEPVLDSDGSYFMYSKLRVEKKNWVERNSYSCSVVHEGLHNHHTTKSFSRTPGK

T3: human BCMA-MMH (extracellular domain of human BCMA with C-terminal myc-myc-hexahistidine tag) (human)
T3 construct: Monomeric antigen; the entry holds the ectodomain and the myc-myc-His tag; also called hBCMA.mmh; hBCMA.mmH
T3 chain: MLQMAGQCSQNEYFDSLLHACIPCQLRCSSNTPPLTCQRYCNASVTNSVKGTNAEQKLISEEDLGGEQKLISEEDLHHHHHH

T4: human BCMA-MFC (extracellular domain of human BCMA with C-terminal mFc tag) (human)
T4 construct: also called hBCMA.mFc
T4 chain: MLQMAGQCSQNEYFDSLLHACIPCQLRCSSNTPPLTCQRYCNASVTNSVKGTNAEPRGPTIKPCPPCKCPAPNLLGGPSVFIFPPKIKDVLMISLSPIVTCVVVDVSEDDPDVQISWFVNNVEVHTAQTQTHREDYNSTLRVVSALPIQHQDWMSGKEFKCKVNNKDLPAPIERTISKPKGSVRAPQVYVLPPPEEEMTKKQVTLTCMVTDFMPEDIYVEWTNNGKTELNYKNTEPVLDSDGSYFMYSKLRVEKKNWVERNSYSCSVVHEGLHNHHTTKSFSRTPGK


Assays:
[1] = target: T1, human BCMA on cells (endogenous, on …); assay: cell-based or functional assay
[2] = target: T1, human BCMA on cells (endogenous, on …); assay: cell-based or functional assay; remark: listed apart in the source
[3] = target: T1, human BCMA on cells (endogenous, on …); assay: cell-based or functional assay; remark: listed apart in the source
[4] = target: T2, mouse BCMA-MFC (BCMA with C-terminal …); assay: SPR, Biacore, mAb captured by anti-hFc, 25 C
Protocol: (§1) The CM5 Biacore sensor surface was derivatized by amine coupling with a monoclonal mouse anti-human Fc antibody (GE, #BR-1008-39) to capture purified anti-BCMA mAbs and anti-BCMA×anti-CD3 bispecific mAbs. All Biacore binding studies were performed in a buffer composed of 0.01M HEPES pH 7.4, 0.15M NaCl, 3 mM EDTA, 0.05% v/v Surfactant P20 (HBS-ET running buffer). […] Antigen samples were then injected over the anti-BCMA and anti-BCMA×anti-CD3 bispecific mAbs captured surfaces at a flow rate of 30 μL/minute. Antibody-reagent association was monitored for 5 minutes while dissociation in HBS-ET running buffer was monitored for 10 minutes. All of the binding kinetics experiments were performed at 25° C. Kinetic association (kₐ) and dissociation (kd) rate constants were determined by fitting the real-time sensorgrams to a 1:1 binding model using Scrubber 2.0c curve fitting software. Binding dissociation equilibrium constants (KD) and dissociative half-lives (t½) were calculated from the kinetic rate constants as: […]

[5] = target: T3, human BCMA-MMH (extracellular domain of …); assay: SPR, Biacore, mAb captured by anti-hFc, 25 C
Protocol: as §1

[6] = target: T4, human BCMA-MFC (extracellular domain of …); assay: SPR, Biacore, mAb captured by anti-hFc, 25 C
Protocol: as §1

[7] = target: T5, monkey BCMA-MFC (monkey BCMA with C-terminal mFc tag) (monkey); assay: SPR, Biacore, mAb captured by anti-hFc, 25 C
T5 construct: also called mfBCMA.mFc
Protocol: as §1

[8] = target: T1, human BCMA on cells (endogenous, on …); assay: cell-based or functional assay; remark: listed apart in the source
[9] = target: T6, monkey BCMA-MMH (monkey BCMA with C-terminal myc-myc-hexahistidine tag) (monkey); assay: SPR, Biacore, mAb captured by anti-hFc, 25 C
T6 construct: The words 'extracellular domain' stand before human BCMA in the sentence and are read as applying to the monkey construct too; also called mfBCMA.mmh
Protocol: as §1

| Binder | MFI fold change over cells incubated in media only, Molp8, 18 h with 67 nM antibody, then stained with the same antibody [1] | MFI fold change over cells incubated in media only, Molp8, 18 h with 667 nM antibody, then stained with the same antibody [1] | MFI fold change over cells incubated in media only, NCI-H929, 18 h with 67 nM antibody, then stained with the same antibody [2] | MFI fold change over cells incubated in media only, NCI-H929, 18 h with 667 nM antibody, then stained with the same antibody [2] | MFI fold change over cells incubated in media only, U266, 18 h with 67 nM antibody, then stained with the same antibody [3] | 30 nM mfBCMA.mFc Bind (RU) (mouse BCMA-MFC by the table's title) [4] | Kd [4] | koff [4] | kon [4] | t½ [4] | 90 nM hBCMA.mmh Bind (RU) [5] | Kd [5] | koff [5] | kon [5] | t½ [5] | 30 nM hBCMA.mFc Bind (RU) [6] | Kd [6] | koff [6] | kon [6] | t½ [6] | also measured |
| --- | --- | --- | --- | --- | --- | --- | --- | --- | --- | --- | --- | --- | --- | --- | --- | --- | --- | --- | --- | --- | --- |
| mAb16747 (REGN4515) (antibody, V domains shown, Anti-BCMA monoclonal antibody; human Fc (captured by anti-human Fc)) VH: QVQLVESGGGLVKPGGSLRLSCAASGFTFSDYYISWIRQAPGKGLEWVSYISSSGSSIKYADSVKGRFTISRDNAKNSLYLQMNSLRAEDTAVYYCAREGGNYGMDVWGQGTTVTVSS VL: DIQMTQSPSSVSASVGDRVTITCRASQGINNWLVWYQQKPGKAPKLLIYAATSLQSGVPSRFSGSGSGTDFTLTISSLQPEDFATYYCQQANSFPPTFGQGTKLEIK | 2.2 fold | 0.6 fold | 1.8 fold | 2.1 fold | 1.5 fold | 108 RU | 4.42 nM | 0.00418 s⁻¹ | 947000 M⁻¹ s⁻¹ | 2.8 min | 31.4 RU | 2.84 nM | 0.00247 s⁻¹ | 869000 M⁻¹ s⁻¹ | 4.7 min | 146 RU | 0.0633 nM | 8.95e-05 s⁻¹ | 1.41e+06 M⁻¹ s⁻¹ | 129 min | MFI fold change over cells incubated in media only, U266, 18 h with 667 nM antibody, then stained with the same antibody [3]: 1.7 fold; 30 nM mfBCMA.mFc Bind (RU) [7]: 101 RU; Kd [7]: 3.37 nM; koff [7]: 0.00716 s⁻¹; kon [7]: 2.13e+06 M⁻¹ s⁻¹; t½ [7]: 1.6 min |
| mAb21581, bivalent anti-BCMA antibody (parent of REGN5458) (antibody, V domains shown) VH: EVQLVESGGGLVQPGGSLRLSCAASGFTFSNFWMTWVRQAPGKGLEWVANMNQDGSEKYYVDSVKGRFTISRDNAKSSLYLQMNSLRAEDTAVYYCARDREYCISTSCYDDFDYWGQGTLVTVSS VL: not shown | 2.3 fold | 3.7 fold | 1.2 fold | 1.4 fold | 1.8 fold |  |  |  |  |  |  |  |  |  |  |  |  |  |  |  | MFI fold change over cells incubated in media only, MM1S, 18 h with 67 nM antibody, then stained with the same antibody [8]: 7.3 fold; MFI fold change over cells incubated in media only, MM1S, 18 h with 667 nM antibody, then stained with the same antibody [8]: 7 fold; MFI fold change over cells incubated in media only, U266, 18 h with 667 nM antibody, then stained with the same antibody [3]: 2.3 fold |
| mAb16711 (antibody, V domains shown, Anti-BCMA monoclonal antibody; human Fc (captured by anti-human Fc)) VH: QVQLVESGGGVVQPGRSLRLSCAASGFTFSTYGIHWVRQAPGKGLEWVAVILHDGSSNYYAESVKGRFIISRDNSKNTLYLQMNSLRAEDTALYYCTKRYSEAAGPNWFDPWGQGTLVTVSS VL: DIQMTQSPSSVSASVGDRVTITCRASRGISSWLAWYQQKPGKAPKLLIHAASSLQSGVPSRFSGSGSGTDFTLTISSLQPEDFATYYCQQAISFPFTFGPGTKVDIK | 3.5 fold | 3 fold | 2.8 fold | 2.1 fold | 2.2 fold | 90 RU | 1.02 nM | 0.0011 s⁻¹ | 1.07e+06 M⁻¹ s⁻¹ | 10.5 min | 22.2 RU | 1.73 nM | 0.00347 s⁻¹ | 2.01e+06 M⁻¹ s⁻¹ | 3.3 min | 114 RU | 0.103 nM | 0.00019 s⁻¹ | 1.85e+06 M⁻¹ s⁻¹ | 60.8 min | MFI fold change over cells incubated in media only, U266, 18 h with 667 nM antibody, then stained with the same antibody [3]: 2.2 fold; 90 nM mfBCMA.mmh Bind (RU) [9]: -0.5 RU; 30 nM mfBCMA.mFc Bind (RU) [7]: 0.9 RU; binding result [7]: no binding (tested: 30 nM) |
| mAb16716 (antibody, V domains shown, Anti-BCMA monoclonal antibody; human Fc (captured by anti-human Fc)) VH: not shown VL: DIQMTQSPSSVSASLGDRVTITCRASQGISSWLAWYQRKPGKAPKLLIYAASSLQSGVPSRFSGSGSGADFTLTISSLQPEDFATYYCQQAKSVPFTFGPGTKVDIK |  |  |  |  |  | 33.4 RU | 18.8 nM | 0.00385 s⁻¹ | 205000 M⁻¹ s⁻¹ | 3 min | 26.4 RU | 3.56 nM | 0.00299 s⁻¹ | 841000 M⁻¹ s⁻¹ | 3.9 min | 120 RU | 0.0968 nM | 8.35e-05 s⁻¹ | 862000 M⁻¹ s⁻¹ | 138 min | 90 nM mfBCMA.mmh Bind (RU) [9]: 0.8 RU; binding result [9]: no binding (tested: 90 nM) |
| mAb16732 (REGN4514) (antibody, V domains shown, Anti-BCMA monoclonal antibody; human Fc (captured by anti-human Fc)) VH: EVQLVESGGGLVQPGRSLRLSCAASGFTFDDYAMHWVRQAPGKGLEWVSGISWNSGNMGYADSVKGRFTISRDNAKNSLFLQMHSLRAEDTAFYYCAKVRLTAFDFWGQGTLVTVSS VL: DIQMTQSPSSLSASVGDRVTITCRTSQSIGNYLNWFQQKPGKAPKLLIYTASSLQNGVPSRFTGSGSGTDFTLTISSLQPEDFVIYYCQQSFSTPYTFGQGTKLEIK |  |  |  |  |  | 110 RU | 0.677 nM | 0.000269 s⁻¹ | 397000 M⁻¹ s⁻¹ | 43 min | 25.3 RU | 2.69 nM | 0.00285 s⁻¹ | 1.06e+06 M⁻¹ s⁻¹ | 4.1 min | 124 RU | 0.0422 nM | 4.53e-05 s⁻¹ | 1.07e+06 M⁻¹ s⁻¹ | 255 min | 30 nM mfBCMA.mFc Bind (RU) [7]: 40.3 RU; Kd [7]: 14.7 nM; koff [7]: 0.00724 s⁻¹; kon [7]: 492000 M⁻¹ s⁻¹; t½ [7]: 1.6 min |
